Assay results published in patent US9057734B2, “Optogenetic probes for measuring membrane potential” (President and Fellows of Harvard College, priority 2010, dated 2015).

Assay: Spectroscopic characterization of purified Arch WT and D95N
Type: physicochemical
Procedure: FIGS. 17A-17C show pH-dependent spectra of Arch 3 WT and D95N. […] At neutral pH, Arch absorbed maximally at 558 nm. Fluorescence emission (dashed line) was recorded on 2 μM protein solubilized in 1% DM, with λexc=532 nm. […] The absorption maximum was at 585 nm. […] Singular Value Decomposition of absorption spectra between 400-750 nm was used to calculate the fraction of the SB in the protonated state as a function of pH. The result was fit to a Hill function to determine the pKa of the SB.
Arch and its D95N mutant were expressed and purified from E. coli, following Bergo, V., et al. (Conformational changes detected in a sensory rhodopsin II-transducer complex. J. Biol. Chem. 278, 36556-36562 (2003)). Briefly, E. coli (strain BL21, pet28b plasmid) was grown in 1 L of LB with 100 μg/mL kanamycin, to an O.D 600 of 0.4 at 37° C. All-trans retinal (5 μM) and inducer (IPTG 0.5 mM) were added and cells were grown for an additional 3.5 hours in the dark. Cells were harvested by centrifugation and resuspended in 50 mM Tris, 2 mM MgCl2 at pH 7.3 and lysed with a tip sonicator for 5 minutes. The lysate was centrifuged and the pellet was resuspended in PBS supplemented with 1.5% dodecyl maltoside (DM). The mixture was homogenized with a glass/teflon Potter Elvehjem homogenizer and centrifuged again. The supernatant was concentrated and washed using a centricon 30k MWCO filter to a final volume of 3 mL.
The absorption spectra of purified Arch 3 WT and D95N were determined using an Ocean Optics USB4000 spectrometer with a DT-MINI-2-GS light source. Absorption spectra, for Arch 3 WT and D95N, were measured as a function of pH between pH 6 and 11. To determine the fluorescence emission spectra, proteins in a quartz cuvette were illuminated with the uncollimated beam of a 100 mW, 532 nm laser (Dragon Lasers, 532GLM100) or a 25 mW, 633 nm HeNe laser (Spectra-Physics). Scattered laser light was blocked with a 532 nm Raman notch filter (Omega Optical, XR03) or a 710/100 emission filter (Chroma), and fluorescence was collected perpendicular to the illumination with a 1000 micron fiber, which passed the light to an Ocean Optics QE65000 spectrometer. Spectra were integrated for 2 seconds.
The fluorescence quantum yields of Arch 3 WT and D95N were determined by comparing the integrated emission intensity to emission of a sample of the dye ALEXA FLUOR® 647 Conjugate. Briefly, the concentrations of micromolar solutions of dye and protein were determined using a visible absorption spectrum. […] The fluorescence emission spectra of dye and protein samples were measured with 633 nm excitation. The quantum yield was then determined by the formula
where Fl is the integrated fluorescence from 660 to 760 nm, ε is the extinction coefficient at 633 nm and c is the concentration.

B1: Arch 3 WT: Archaerhodopsin 3, light-driven proton pump from Halorubrum sodomense, used as fluorescent voltage indicator (protein)
chain: MDPIALQAGYDLLGDGRPETLWLGIGTLLMLIGTFYFLVRGWGVTDKDAREYYAVTILVPGIASAAYLSMFFGIGLTEVTVGGEMLDIYYARYADWLFTTPLLLLDLALLAKVDRVTIGTLVGVDALMIVTGLIGALSHTAIARYSWWLFSTICMIVVLYFLATSLRSAAKERGPEVASTFNTLTALVLVLWTAYPILWIIGTEGAGVVGLGIETLLFMVLDVTAKVGFGFILLRSRAILGDTEAPEPSAGADVSAAD
modifications: Halorubrum sodomense
notes: Archaerhodopsin 3, light-driven proton pump from Halorubrum sodomense, used as fluorescent voltage indicator
**Q.** Which ε633 (calibrated assuming peak extinction coefficient of Bacteriorhodopsin, 63,000 M^−1 cm^−1) does the source give for B1 here?
**A.** 6,300 M^−1cm^−1

**Q.** And the QY (comparison to Alexa 647, excitation at 633 nm, listed as Arch WT)?
**A.** 9 × 10^−4
